Experimental data from article PMC11229311, “Structural and functional investigation of the DHH/DHHA1 family proteins in Deinococcus radiodurans” (Nucleic Acids Research, 2024).

Target: the molecule itself
Experiment: SEC; analytical gel filtration, Superdex 75 10/300 GL, 20 mM Tris pH 8.0, 100 mM NaCl, 1 mM TCEP; 300 ul of 1 mM protein loaded; calibrated with protein standards (6.5-75 kDa)

B1: Deinococcus radiodurans RecJ-like (DrRecJ-like), wild type (enzyme, UniProt Q9RW43 1-338, looked up)
chain: MTAENSATPDYRRNVGAVADALLAHPGPIVVLSHENPDGDALGSVLGLSRALRTLGKTVLAPMTVPHYLSFLPQPGELTAPLESWPQGALAAVLDVDNNDPVRVAGADLTQFDGPVVNVDHHGTNLRRADAGVVDPSKPAAAMMVADVIDALGAPWSEAVATPLMLGLNTDTGNFAFDSVSAETFECAARLRAHGARIGWLNDQMRQNPQSYYLLLREVLGKLEFLHGGRVVQTRVDEEMLARAGATWEQVENYVSMLRNAEGAQLAVMAKDYGDRVKFSLRSRGPVSAQNIAVALGGGGHVPAAGATVISSYAEARARLDAAIEAELARVDAQATAE
notes: RecJ-like protein (DR_0826) of Deinococcus radiodurans, full-length gene, residues 1-338, amplified from genomic DNA; DHH and DHHA1 domains; Tag-free after TEV cleavage of the His-MBP-TEV fusion (vector pET28-HMT); also called DrRecJ-like^wt; DrNrnA; source: E. coli Rossetta (DE3), purified (His-tag column, HiTrap Q, TEV tag removal, Superdex 75); not shown: His6, N-terminal, cleaved; MBP, …
- stoichiometry N: 2
